Biological target: T1, 35S-labeled in vitro translated HA-tagged BI-2 (human, UniProt Q9NZS9 1-450, 35S-labeled methionine (in vitro translation))
T1 construct: Made by TNT rabbit reticulocyte in vitro transcription/translation; also called HA-BI-2; not shown: three copies of the HA tag at the N-terminus (vector pSN503)
T1 sequence: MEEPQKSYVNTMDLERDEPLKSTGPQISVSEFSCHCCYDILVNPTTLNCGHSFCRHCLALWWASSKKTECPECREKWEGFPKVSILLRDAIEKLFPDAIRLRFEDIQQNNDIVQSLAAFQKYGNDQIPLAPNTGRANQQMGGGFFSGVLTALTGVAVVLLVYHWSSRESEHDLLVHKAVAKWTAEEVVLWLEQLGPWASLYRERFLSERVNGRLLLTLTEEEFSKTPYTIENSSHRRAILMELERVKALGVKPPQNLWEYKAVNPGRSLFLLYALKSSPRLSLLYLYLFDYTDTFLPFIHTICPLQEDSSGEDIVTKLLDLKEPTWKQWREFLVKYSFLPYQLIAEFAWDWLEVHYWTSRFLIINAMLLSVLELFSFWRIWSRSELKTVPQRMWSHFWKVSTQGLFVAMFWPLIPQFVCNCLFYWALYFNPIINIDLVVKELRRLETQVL
Assay: GST pull-down: about 5 ug GST fusion protein on glutathione SEPHAROSE, 35S-labeled in vitro translated HA-BI-2, SDS-PAGE and autoradiography
Procedure: Approximately 5 µg of the following fusion proteins, including GST control, GST-CD40 cytosolic domain, GST-Bcl-2, GST-Bax or GST-BI-2, were immobilized on glutathione SEPHAROSE, then 8 µl of ^35S-labeled in vitro translated HA-tagged BI-2 in binding buffer was added. After incubation at 4° C. for 2 hr, the beads were washed 5× with binding buffer and the associated proteins were eluted in Laemli sample buffer and analyzed by SDS-PAGE (10% gel). As a control, ^35S-labeled BI-2 was loaded directly into the gel, using one-quarter the amount employed for the binding experiments. Following electrophoresis, the gels were dried and exposed to X-ray film.

B1: GST-CD40 cytosolic domain (other, UniProt P25942 216-277, looked up)
chain: KKVAKKPTNKAPHPKQEPQEINFPDDLPGSNTAAPVQETLHGCQPVTQEDGKESRISVQERQ
notes: domain: cytosolic domain; Unrelated control protein; not shown: glutathione S-transferase (GST) fusion partner
B1: no binding.

Reference: US6545128 (BURNHAM INSTITUTE, dated 2003)
